Source: patent US11219645B2, “Tumor infiltrating lymphocytes for treatment of cancer” (Duke University, priority 2015, dated 2022)

Columns and labels:
activated CD8+ T cells [1] = assay: C3aR and C5aR antagonists in vitro blockade, IL-10 intracellular staining; assay type: cell-based, mouse; conditions: 10 μmol/L of each antagonist, 6 days; FIG. 6J
Description: C3aR and C5aR Antagonists In Vitro Blockade: Mouse CD8+ T cells from lymph nodes were enriched using a negative selection kit (Stemcell Technologies; Cat #19853) and activated by plate-bound anti-CD3 (2 μg/mL) and anti-CD28 (1 μg/mL) antibodies for 72 hours. The activated CD8+ T cells were then cultured in complete medium alone (control), 10 μmol/L SB290157 (C3aR antagonist, C3aRA), 10 μmol/L PMX205 (C5aR antagonist, C5aRA), or a combination of 10 μmol/L SB290157 and 10 μmol/L PMX205 for 6 days. The IL10 expression was determined by intracellular staining.

[2] = cancer patients; cited from earlier work
[3] = tested on: TILs from human lung tumors; assay: In vitro expansion of human TILs cultured with IL-2 and/or IL-10; assay type: cell-based; conditions: FIG. 5A
Description: (§1) The plates were placed in a humidified 37° C. incubator with 5% CO2.
as §1

[4] = tested on: Human TILs from lung cancer patients; assay: T cell exhaustion markers on CD8+ TILs after IL-10 culture, flow cytometry; assay type: cell-based; conditions: IL-2 plus IL-10 versus IL-2, 21 days culture; FIG. 10
Description: T cells were activated by anti-CD3/CD28 antibodies for 24 hrs. The surface expression of PD-1, LAG-3 and TIM-3 was analyzed by flow cytometry. FACS profiles are representative of three patients.

[5] = tested on: CD8+ TILs from human lung tumors; assay: mRNA expression profiling (microarray) of expanded CD8+ TILs; assay type: cell-based; conditions: IL-10/IL-2-cultured versus IL-2-cultured CD8+ TILs
Description: Microarray Data Analysis: TILs from human lung tumors were in vitro—expanded for 20 days with 6,000 U/mL rIL2 and/or 100 U/mL rIL10. The expanded TILs were activated by incubation in 3 μg/mL anti-CD3/CD28 antibodies for 6 hours. The CD8+ TILs were enriched by negative selection using a kit (Stemcell Technologies). RNA was extracted using TRIzol reagent (Life Technologies) according to the instructions. Microarray analyses were performed using human U133A 2.0 arrays by the Duke University microarray facility. Raw intensities from the CEL files were analyzed using PartekGenomics Suite (Partek Incorporated) with standard background correction to generate an RMA (robust multiarray average intensity) on a log 2 scale for each probe set. Probe sets were filtered for “present” detection in two or more arrays, and the interquartile intensity range was >0.5. The filtered RMA intensities were then analyzed for differential expression using the advanced ANOVA, and differentially expressed genes were generated with/without FDR-adjusted P values using the Benjamini-Hochberg method.

human CD4+ T cells = assay: Impact of IL-10 on effector cytokine production in human CD4+ T cells; assay type: cell-based; conditions: 100 U/ml rIL-2 plus 500 U/ml rIL-10 versus rIL-2, 48 hrs; FIG. 9D
Description: (§2) B16F10 melanoma cells (2×10^5/mouse) were subcutaneously inoculated into WT and C3−/− mice. The draining lymph nodes and tumors were dissected and treated with collagenase and DNase to obtain single cell suspensions. Leukocytes were pre-gated on CD45 positive cells. FIG. 9A show the CD11b and GR1expression in leukocytes from dLNs as analyzed by flow cytometry. […] WT and C3−/− mice were subcutaneously inoculated with B16F10 cells (2×10^5/mouse). IFNγ- and TNFα-producing CD4+ TILs were analyzed by flow cytometry (n=4 mice per group) at day 12 after tumor inoculation. […] CD4+ T cells were enriched from PBMCs of healthy donors and activated by anti-CD3/CD28 antibodies in vitro for 48 hrs. The activated CD4+ T cells were then cultured with 100 U/ml rIL-2 or 100 U/ml rIL-2 plus 500 U/ml rIL-10 for 48 hrs. The cells were activated using a Cell Activation Cocktail (Biolegend) for 6 hours before intracellular IFNγ and TNFα staining. The expression of IFNγ and TNFα was analyzed by flow cytometry (n=3). […] Mouse CD4+ T cells were enriched from the spleens of naïve mice using a negative selection kit and activated by anti-CD3/CD28 antibodies for 48 hours in vitro. The activated CD4+ T cells were then cultured with 100 U/ml rIL-2 or 100 U/ml rIL-2 plus 500 U/ml rIL-10 for 48 hrs. […] The expression of IFNγ and TNFα was analyzed by flow cytometry (n=3). […]

mouse CD4+ T cells = assay: Impact of IL-10 on effector cytokine production in mouse CD4+ T cells; assay type: cell-based; conditions: 100 U/ml rIL-2 plus 500 U/ml rIL-10 versus rIL-2, 48 hrs; FIG. 9E
Description: as §2

activated CD8+ T cells [6] = assay: PD-1 expression on CD8+ T cells activated with anti-CD3/CD28 in the presence of IL-10; assay type: cell-based, mouse; conditions: 500 U/mL IL-10, 48 hours, 3 μg/mL anti-CD3/CD28; FIG. 7B
Description: (§3) B16F10 melanoma cells (2×10^5/mouse) were subcutaneously inoculated into wild-type (WT) and C3−/− mice. […] T cells from lymph nodes of naïve mice were activated by incubation with 3 μg/mL anti-CD3/CD28 antibodies for 48 hours with or without 500 U/mL IL-10 and analyzed for PD-1 expression. FIGS. 7C-D show PD-L1 expression on tumor cells developed in WT and C3−/− mice. Bl6F10 melanoma cells (2×10^5/mouse) or E0771 breast cancer cells (1×10^6/mouse) were subcutaneously inoculated into WT and C3−/− mice. PD-L1 expression in CD45-B16 tumor cells (FIG. 7C) and CD45-E0771 cells (FIG. 7D) was measured by flow cytometry at day 12 and day 19, respectively. […] B16F10 cells were cultured with or without 500 U/mL IL-10 for 5 days. PD-L1 expression was analyzed by flow cytometry. […] B16F10 cells were transduced with control virus or single-guide RNA (sgRNA)—targeting PD-L1 virus and selected with puromycin to generate a stable PD-L1-silenced polyclonal cell line. […] Control or PD-L1-silenced B16F10 melanoma cells (4×10^5/mouse) were subcutaneously inoculated into C3−/− and C3−/− Tiger mice. GFP expression in CD3+CD8+ TILs was analyzed by flow cytometry. […] Tumor development was monitored every day starting from day 7 after implantation (n=7, 7, 9, and 8 mice, respectively). […] Significance was determined in FIG. 7H and FIG. 7I by Student t test.*, P≤0.05; **, P≤0.01.

B16F10 cells = assay: PD-L1 expression in tumor cells after IL-10 stimulation; assay type: cell-based, mouse; conditions: 500 U/mL IL-10 for 5 days; FIG. 7E
Description: as §3

Molecule: NC(N)=NCCC[C@H](NC(=O)COCC(c1ccccc1)c1ccccc1)C(=O)O [SB 290157]
- IL-10 expression in activated CD8+ T cells (activated CD8+ T cells [1]): slightly increased IL-10 expression

Molecule: Pegylated IL-10: Pegylated IL-10 given to cancer patients
- adverse effect profile [2]: manageable adverse effect profile

Molecule: hydrocinnamate-(L-ornithine-proline-D-cyclohexylalanine-tryptophan-arginine) [PMX205]
- IL-10 expression in activated CD8+ T cells (activated CD8+ T cells [1]): slightly increased IL-10 expression

B1: IL-10: a cytokine with multiple, pleotropic effects in immunoregulation and inflammation (protein, UniProt P22301 19-178, looked up)
Interleukin-10: SPGQGTQSENSCTHFPGNLPNMLRDLRDAFSRVKTFFQMKDQLDNLLLKESLLEDFKGYLGCQALSEMIQFYLEEVMPQAENQDPDIKAHVNSLGENLKTLRLRLRRCHRFLPCENKSKAVEQVKNAFNKLQEKGIYKAMSEFDIFINYIEAYMTMKIRN
- proliferative capacity of TILs ([3]; IL-10 added with IL-2: 6,000 U/mL rIL-2 plus 100 U/mL rIL-10, TILs from patients with lung cancer): robustly enhanced the proliferative capacity of TILs
- proliferative capacity of TILs (entry into the cell cycle) ([3]; IL-10 alone, 100 U/mL rIL-10): did not drive TILs into the cell cycle
- expression of T-cell exhaustion markers (PD-1, LAG3, TIM3) [4]: not altered
- expression of genes of signaling pathways (TCR signaling, Notch signaling, cell cycle, killing activity) ([5]; 20 days, FIG. 5F-I): upregulated genes related to several signaling pathways
- expression of chemokine genes ([5]; FIG. 5J): variable depending on the specific chemokine
- effector status (IFNγ and TNFα) of human CD4+ T cells (human CD4+ T cells): did not obviously alter the effector status
- effector status (IFNγ and TNFα) of mouse CD4+ T cells (mouse CD4+ T cells): did not obviously alter the effector status
- PD-1 expression on activated CD8+ T cells (activated CD8+ T cells [6]): did not modulate PD-1 expression
- PD-L1 expression on tumor cells (B16F10 cells): not changed
